The target of the test is Fc gamma receptor (Fc(γ)R) on dendritic cells. The experiment in a line: cell-based or functional assay.

The source of these data is patent US20040131610A1.

The substance monoclonal antibody 3G4 (ATCC PTA 4545) displayed a DC uptake of apoptotic tumor cells of 300%.
